Data taken from article PMC6703430, “Combining Mutations That Inhibit Two Distinct Steps of the ATP Hydrolysis Cycle Restores Wild-Type Function in the Lipopolysaccharide Transporter and Shows that ATP Binding Triggers Transport” (mBio, 2019).

Target: the molecule itself
Assay: crystal structure; ATP-bound His8-LptB^E163Q, 1.96 Å; hanging drops, reservoir 28% PEG 4000, 100 mM MES pH 6.75, 600 mM NaCl; space group C222(1)

B1: His8-LptB^E163Q (enzyme, E. coli, UniProt P0A9V1 1-241, looked up)
chain: MATLTAKNLAKAYKGRRVVEDVSLTVNSGEIVGLLGPNGAGKTTTFYMVVGIVPRDAGNIIIDDDDISLLPLHARARRGIGYLPQEASIFRRLSVYDNLMAVLQIRDDLSAEQREDRANELMEEFHIEHLRDSMGQSLSGGERRRVEIARALAANPKFILLDQPFAGVDPISVIDIKRIIEHLRDSGLGVLITDHNVRETLAVCERAYIVSQGHLIAHGTPTEILQDEHVKRVYLGEDFRL
notes: catalytically dead E163Q variant; the CTD is fully resolved up to L241, the last residue of LptB; A TEV protease cleavage site stands between the His8 tag and LptB; no TEV cleavage is described; also called His8TEV-LptB(E163Q); His-LptB(E163Q); source: E. coli KRX, pET28b(+)-His8TEV-LptB(E163Q), purified (Ni-NTA, gel filtration on Superdex 200); not shown: His8, N-terminal, kept
B1 was tested, and the “stoichiometry N” value was 2.
